In patent US20260176352A1 (BIRD ROCK BIO, published 2026):
Residue numbers refer to the chain shown, from its start. “And” between values parts separate entries of the source, which are not always exact repeats. Identical values can stand only once.

Key:
[1] = molecular target: T1, native full length human CB1 receptor (cannabinoid 1 receptor) (human, UniProt P21554 1-472); test: flow cytometry, A156 cells; batch 5.9 mg/ml
T1 construct: whole, on cells; also called A156; Native human CB1 TRex CHO A156
Protocol: (§1) To further assess TRex CHO parental cells, TRex CHO A56 overexpressed CB1, Native human CB1 TRex CHO A156, 5HT2B, Mouse CB1 and human CB2 were used to examine the specificity of IgG binding. 100 μl of 1×10⁶ cells/ml of cells were incubated with primary antibody IgGs in 3-fold serial dilutions starting from 1 μM to 0.5 nM for 30 minutes on ice. After being washed with 200 μl of FACS buffer twice, cells were incubated with secondary antibody for 30 minutes on ice. Cells were washed with 200 μl of FACS buffer twice and transferred to BD Falcon 5 ml tube and analyzed by FACS.
(§2) For selected binders, full binding curves were generated on CB1 receptor by testing a range of concentrations. Three-fold serial dilutions from 1 μM to 0.1 μM were prepared. Selectivity was determined by measuring binding to cells expressing 5HT2B or CB2, relative to binding to A156 (native human CB1 receptor expressing) or A56 (overexpressed-CB1 receptor with the T210A modification and ICL3 replacement with fusion partner) by flow cytometry. […] PE-conjugated anti-mouse (for detection of anti-CB2) and PE conjugated anti-human antibodies were used to detect CB2 and 5HT2B, respectively.

[2] = molecular target: T1, native full length human CB1 receptor …; test: flow cytometry, A156 cells; batch 4.85 mg/ml
Protocol: as §1, §2

[3] = molecular target: T2, TRex CHO A56 over-expressed CB1 (CB1 T210A/fusion partner) (UniProt P21554 1-472); test: flow cytometry, A56 cells; batch 5.78 mg/ml
T2 construct: whole, on cells; The fusion partner stands inside the CB1 chain in place of ICL3, not at its end; also called Trex-CHO CB1 T210A/fusion partner; not shown: fusion partner that replaces ICL3
Protocol: as §1, §2

[4] = molecular target: 5HT2B (expression cell line) (Homo sapiens (Human), UniProt P41595 1-481); test: flow cytometry, IgG titrated on cells
Sequence of 5HT2B (expression cell line) (P41595 whole entry): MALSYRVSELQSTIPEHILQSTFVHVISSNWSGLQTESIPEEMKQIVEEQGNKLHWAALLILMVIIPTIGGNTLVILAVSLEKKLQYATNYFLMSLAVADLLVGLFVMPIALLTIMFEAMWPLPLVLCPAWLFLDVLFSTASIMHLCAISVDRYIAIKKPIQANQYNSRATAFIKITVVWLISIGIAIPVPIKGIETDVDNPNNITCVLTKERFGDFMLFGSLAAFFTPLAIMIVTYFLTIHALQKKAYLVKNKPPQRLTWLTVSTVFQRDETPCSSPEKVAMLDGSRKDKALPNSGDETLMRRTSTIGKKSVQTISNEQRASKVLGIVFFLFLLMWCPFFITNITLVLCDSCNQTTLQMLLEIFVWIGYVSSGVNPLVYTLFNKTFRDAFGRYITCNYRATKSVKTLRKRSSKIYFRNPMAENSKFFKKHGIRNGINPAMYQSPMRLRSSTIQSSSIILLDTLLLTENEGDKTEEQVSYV
Protocol: as §1, §2

[5] = molecular target: T2, TRex CHO A56 over-expressed CB1 (CB1 …); test: flow cytometry, IgG titrated on cells
Protocol: as §1, §2

[6] = molecular target: T1, native full length human CB1 receptor …; test: flow cytometry, IgG titrated on cells
Protocol: as §1, §2

human CB2 [7] = molecular target: T3, human CB2 (human, UniProt P34972 1-360); test: flow cytometry, IgG titrated on cells
T3 construct: whole, on cells; also called TRexCHO Human CB2
T3 sequence (P34972 whole entry): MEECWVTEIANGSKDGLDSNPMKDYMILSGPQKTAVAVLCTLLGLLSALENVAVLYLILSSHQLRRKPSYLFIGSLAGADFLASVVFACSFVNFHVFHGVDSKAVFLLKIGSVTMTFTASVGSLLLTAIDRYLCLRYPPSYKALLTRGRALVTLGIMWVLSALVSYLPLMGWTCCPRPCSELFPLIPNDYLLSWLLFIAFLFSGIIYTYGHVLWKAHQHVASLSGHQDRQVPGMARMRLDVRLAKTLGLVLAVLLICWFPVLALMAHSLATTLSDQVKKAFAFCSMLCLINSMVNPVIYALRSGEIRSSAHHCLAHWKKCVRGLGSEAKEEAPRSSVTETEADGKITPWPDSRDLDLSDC
Protocol: as §1, §2

[8] = molecular target: T2, TRex CHO A56 over-expressed CB1 (CB1 …); test: flow cytometry, A56 cells; batch 5.9 mg/ml
Protocol: as §1, §2

[9] = molecular target: T1, native full length human CB1 receptor …; test: flow cytometry, A156 cells; batch 5.78 mg/ml
Protocol: as §1, §2

mouse CB1 [10] = molecular target: T4, mouse CB1 (mouse, UniProt P47746 1-473); test: flow cytometry on cells expressing the target
T4 construct: whole, on cells; also called TRexCHO Mouse CB1
T4 sequence (P47746 whole entry): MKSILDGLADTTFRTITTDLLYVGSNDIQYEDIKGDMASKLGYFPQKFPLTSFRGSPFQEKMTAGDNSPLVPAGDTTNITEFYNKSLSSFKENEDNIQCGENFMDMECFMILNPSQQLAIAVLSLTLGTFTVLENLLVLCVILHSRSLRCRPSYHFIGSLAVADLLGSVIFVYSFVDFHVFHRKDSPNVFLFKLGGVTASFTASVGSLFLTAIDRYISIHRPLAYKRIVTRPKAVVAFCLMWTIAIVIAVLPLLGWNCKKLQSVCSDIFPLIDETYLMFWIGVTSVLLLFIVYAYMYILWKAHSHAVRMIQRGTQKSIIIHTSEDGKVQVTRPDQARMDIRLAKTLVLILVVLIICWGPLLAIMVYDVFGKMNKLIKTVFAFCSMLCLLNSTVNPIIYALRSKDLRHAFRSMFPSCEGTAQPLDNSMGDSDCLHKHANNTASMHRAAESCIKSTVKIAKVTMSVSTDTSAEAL

[11] = molecular target: T2, TRex CHO A56 over-expressed CB1 (CB1 …); test: flow cytometry, A56 cells; batch 4.85 mg/ml
Protocol: as §1, §2

[12] = molecular target: T1, native full length human CB1 receptor …; test: flow cytometry, A156 cells; batch 5.28 mg/ml
Protocol: as §1, §2

[13] = molecular target: T2, TRex CHO A56 over-expressed CB1 (CB1 …); test: flow cytometry, A56 cells; batch 5.28 mg/ml
Protocol: as §1, §2

[14] = molecular target: T5, A139 iCAPS (CB1 with ICL3 native sequence replaced with BRIL) (human, UniProt P21554 99-414); test: ELISA, purified IgG on A139 CB1 iCAPS
T5 construct: The insert stands inside the chain in place of ICL3
Protocol: (§3) Purified IgG was tested for binding to purified CB1 receptor (CB1 Conformation Antigen Presenting System (iCAPS)) by ELISA. Non-biotinylated antigens (e.g. empty iCAPS) were coated directly on Maxisorp plates. The primary antibodies were purified IgGs with 1:3 serial dilutions, incubated on the plate for 1 hour. After 3 rounds of washing with PBST, secondary antibodies HRP goat anti-mouse IgG (Abmart) or HRP goat anti-human IgG (Sigma), depending on the species of the IgGs were added and incubated for another hour. The plates were washed three times with PBST, then developed with TMB (Biopanda). HCl was added to the plates to stop the reaction. Absorbance at 450 nm was read on Emax precision microplate reader (Molecular Devices).

[15] = molecular target: T6, A138 iCAPS (CB1 with ICL3 native sequence replaced with protein 1 sequence) (human, UniProt P21554 99-414); test: ELISA, purified IgG on A138 CB1 iCAPS
T6 construct: The insert stands inside the chain in place of ICL3
Protocol: as §3

[16] = molecular target: T1, native full length human CB1 receptor …; test: binding to CB1 cells (FIG. 12); unlabeled P4B5
[17] = molecular target: T1, native full length human CB1 receptor …; test: binding to CB1 cells (FIG. 12); labeled with Vivotag 680 XL
[18] = molecular target: T2, TRex CHO A56 over-expressed CB1 (CB1 …); test: flow cytometry, A56 cells; batch 1.25 mg/ml
Protocol: as §1, §2

[19] = molecular target: T1, native full length human CB1 receptor …; test: flow cytometry, A156 cells; batch 0.49 mg/ml
Protocol: as §1, §2

human CB2 [20] = molecular target: T3, human CB2; test: flow cytometry on TRex-CHO human CB2 cells, middle panel
Protocol: (§4) After being washed with 200 μl of FACS buffer twice, cells were incubated with PE conjugated anti-human secondary antibody (Southern Biotech) for 30 minutes on ice. Cells were washed with 200 μl of FACS buffer twice and transferred to BD Falcon 5 ml tube and analyzed by flow cytometry (BD FACScalibur).

mouse CB1 [21] = molecular target: T4, mouse CB1; test: flow cytometry on TRex-CHO mouse CB1 cells, lower panel
Protocol: as §4

[22] = molecular target: T1, native full length human CB1 receptor …; test: cell-based or functional assay
[23] = molecular target: T1, native full length human CB1 receptor …; test: flow cytometry, A156 cells; batch 1.25 mg/ml
Protocol: as §1, §2

[24] = molecular target: T2, TRex CHO A56 over-expressed CB1 (CB1 …); test: flow cytometry, A56 cells; batch 1.01 mg/ml
Protocol: as §1, §2

[25] = molecular target: T2, TRex CHO A56 over-expressed CB1 (CB1 …); test: flow cytometry, TRexCHO A56 cells
Protocol: as §4

[26] = molecular target: T1, native full length human CB1 receptor …; test: flow cytometry, TRex-CHO human CB1 cells; mean ± SD
Protocol: (§5) TRex CHO parental cells, and TRex-CHO cells stably transfected with tetracycline inducible human CB1, human CB2 or mouse CB1 expression constructs were harvested. […] Cells were then centrifuged at 4° C. at 1600 rpm for 3 minutes; supernatant was aspirated and cells were washed with 200 μL FACS buffer. The washing procedure was repeated twice. After the final wash, cells were re-suspended in FACS buffer containing PE-conjugated anti-human Fc secondary antibody (1:200 dilutions) and incubated at 4° C. for 30 minutes. Cells were washed with 200 μL FACS buffer twice and analyzed by flow cytometry (Guava). Data analysis and measurement of binding affinity (KD) was performed using GraphPad Prism software.

[27] = molecular target: T1, native full length human CB1 receptor …; test: cell-based or functional assay; remark: listed apart in the source
[28] = molecular target: T1, native full length human CB1 receptor …; test: flow cytometry, A156 cells; batch 1.01 mg/ml; A156 cells; batch 1.01 mg/ml, first of two such rows
Protocol: as §1, §2

[29] = molecular target: T1, native full length human CB1 receptor …; test: flow cytometry on TRex-CHO cells with tetracycline inducible human CB1
Protocol: as §5

[30] = molecular target: T1, native full length human CB1 receptor …; test: flow cytometry, TRexCHO A156 cells
Protocol: as §4

[31] = molecular target: T1, native full length human CB1 receptor …; test: flow cytometry, TRex-CHO human CB1 cells; mean of batch 2
Protocol: as §5

[32] = molecular target: T1, native full length human CB1 receptor …; test: flow cytometry, TRex-CHO human CB1 cells; mean of batch 1
Protocol: as §5

[33] = molecular target: T1, native full length human CB1 receptor …; test: flow cytometry, A156 cells; batch 1.01 mg/ml
Protocol: as §1, §2

[34] = molecular target: T1, native full length human CB1 receptor …; test: flow cytometry, TRex-CHO human CB1 cells; mean of batch 3
Protocol: as §5

[35] = molecular target: T1, native full length human CB1 receptor …; test: cell-based or functional assay; remark: listed apart in the source

B1: 36E12B6C2 IgG (hybridoma-derived) (antibody, V domains shown)
VH: QVQLQQSGAELVRPGSSVKISCKASGYEFSYYWMNWVKQRPGQGLQWIGQIYPGDGDTNYNGKFKGKATLTADKSSSTAYMHLTSLTSEDSAVYFCARSGGNPFAFWGQGTLVTVSA
VL: DIQMTQTSSSLSASLGDRVTFSCRASQDISNYLNWYQQKPDGTVKLLIYYTSRLHSGVTSRFRGSGSGTDYSLTISNLEQEDVATYFCQQGHTLPWSFGGGTKLEIKR
- Kd [1]: 26 nM
- Kd [2]: 64 nM
- Kd [3]: 69.4 nM
- binding result [4]: no binding (tested: 1000 nM)
- EC50 (read off the curve) [5]: ~40 nM
- EC50 (read off the curve) [6]: ~60 nM
- binding result (human CB2 [7]): no binding (tested: 1000 nM)
- Kd [8]: 60.2 nM
- Kd [9]: 151 nM
- binding result (mouse CB1 [10]): no binding (tested: 1 µM)
- Kd [11]: 29.3 nM
- Kd [12]: 27.7 nM
- Kd [13]: 51.9 nM

B2: PA2LR3-P4B5 (chimeric) (antibody, human IgG1, kappa, V domains shown)
VH: EVQLQQSGAELVRPGSSVKISCKASGYAFSYYWMNWVKQRPGQGLEWIGQIYPGDGDTNYSGRFKGKATLTADKSSSTAYIQLSSLTSEDSAVYFCARSHGNYFPYWGQGTLVTVSA
VL: DIVLNQSPAIMSASLGERVTMTCTASSSVSSSYLHWYQQKPGSSPKLWIYSTSNLASGVPARFSGSGSGTSYSLTISSMEAEDAATYYCHQYHRSPLTFGAGTKLEIKR
- EC50 [14]: 0.24 nM
- EC50 [15]: 0.24 nM
- EC50 [16]: 60.5 nM

B3: P4B5 antibody labeled with Vivotag 680 XL (antibody, human IgG1, kappa, V domains shown)
VH: B2 VH
VL: B2 VL
modifications: Vivotag 680 XL label, site and chain not stated
notes: also called Labeled P4B5
- EC50 [17]: 57.8 nM

B4: PA13R3-P1C4 (chimeric) IgG (antibody, V domains shown)
VH: B2 VH with S16V, A28E, D57E, N59K, S61N, R63K, S77N, I81M, F104L
VL: B2 VL with N5T, L97P, I107L
notes: Phage-derived mouse variable regions on human constant regions; also called Chimeric P1C4-IgG; PA13R3-P1C4 IgG
- EC50 [14]: 0.175 nM
- Kd [18]: 50.6 nM
- Kd [19]: 187 nM
- binding result (human CB2 [20]): no binding (tested: about 300 nM (last point))
- binding result (mouse CB1 [21]): no binding (tested: about 300 nM (last point))
- IC50 (nM), cAMP assay [22]: 93 nM
- Kd [23]: 72.6 nM
- binding result [4]: no binding (tested: 1000 nM)
- EC50 (read off the curve) [5]: ~20 nM
- EC50 (read off the curve) [6]: ~30 nM
- Kd [24]: 27.3 nM
- Kd [25]: 10.5 nM
- Kd [26]: 103 nM
- IC50, cAMP functional antagonist assay [27]: 90 nM
- Kd [28]: 40.5 nM
- EC50 (read off the curve) [29]: ~60 nM and ~40 nM
- EC50 [15]: 0.172 nM
- Kd [30]: 25 nM
- Kd [31]: 116 nM
- Kd [32]: 92 nM
- Kd [33]: 171 nM
- Kd [34]: 96 nM
- cAMP IC50 (nM) Mean of Batch 1 [n] [35]: 120 nM
- cAMP IC50 (nM) Mean of Batch 2 [n] [35]: 155 nM
